Results from patent US20150004637A1, “SYSTEMS AND METHODS FOR IMAGING AT HIGH SPATIAL AND/OR TEMPORAL PRECISION” (President and Fellows of Harvard College, priority 2011, published 2015).
Read-outs that look alike come from different tables or passages of the source.

B1: Arch D95N: Archaerhodopsin 3 with aspartic acid 95 mutated to asparagine; non-pumping voltage indicator (protein, UniProt P96787 7-258, looked up, variant D95N)
Archaerhodopsin-3: QAGYDLLGDGRPETLWLGIGTLLMLIGTFYFLVRGWGVTDKDAREYYAVTILVPGIASAAYLSMFFGIGLTEVTVGGEMLDIYYARYANWLFTTPLLLLDLALLAKVDRVTIGTLVGVDALMIVTGLIGALSHTAIARYSWWLFSTICMIVVLYFLATSLRSAAKERGPEVASTFNTLTALVLVLWTAYPILWIIGTEGAGVVGLGIETLLFMVLDVTAKVGFGFILLRSRAILGDTEAPEPSAGADVSAAD
B2: Archaerhodopsin 3 (protein)
chain: MDPIALQAGYDLLGDGRPETLWLGIGTLLMLIGTFYFLVRGWGVTDKDAREYYAVTILVPGIASAAYLSMFFGIGLTEVTVGGEMLDIYYARYADWLFTTPLLLLDLALLAKVDRVTIGTLVGVDALMIVTGLIGALSHTAIARYSWWLFSTICMIVVLYFLATSLRSAAKERGPEVASTFNTLTALVLVLWTAYPILWIIGTEGAGVVGLGIETLLFMVLDVTAKVGFGFILLRSRAILGDTEAPEPSAGADVSAAD
modifications: Halorubrum sodomense
notes: Microbial rhodopsin from Halorubrum sodomense, light-driven proton pump used as fluorescent voltage indicator; experiments used an Arch-eGFP fusion

How the values were obtained:
[1] = Relative photostability of Arch and eGFP (photobleaching of Arch-eGFP fusion); type: physicochemical; conditions: measured in a 1:1 fusion with eGFP
Protocol: (3) Relative photostability of Arch and eGFP. To perform a direct comparison of photostability of Arch and eGFP the photobleaching of the Arch-eGFP fusion was studied. This strategy guaranteed a 1:1 stoichiometry of the two fluorophores, simplifying the analysis. The experiments were performed on permeabilized cells, in the microscope, with video recording as the cells photobleached. A movie of photobleaching of Arch was first recorded under 640 nm illumination; then on the same field of view photobleaching of eGFP under 488 nm illumination was recorded, with illumination intensity adjusted to yield approximately the same initial count rate as for Arch. Fluorescence background levels were obtained from nearby protein-free regions of each movie and were subtracted from the intensity of the protein-containing regions. The area under each photobleaching timetrace was calculated, yielding an estimate of the total number of detected photons from each fluorophore. The eGFP emission (lambda-max=509 nm) and the Arch emission (lambda-max=687 nm) were collected through different emission filters, so the raw counts were corrected for the transmission spectra of the filters and the wavelength-dependent quantum yield of the EMCCD camera. The result was that the relative number of photons emitted prior to photobleaching for eGFP:Arch WT was 3.9:1, and for eGFP:ArchD95N this ratio was 10:1.

[2] = tested on: HEK cells; test: Step response of fluorescence to membrane potential steps; type: cell-based; conditions: for Approx response time: Table 2, described herein; for τresponse: determined from step-response
Protocol: The step response was measured in a similar manner, except that test waveforms consisted of a series of voltage pulses, from −70 mV to +30 mV with duration 300 ms and period 1 s. Cells were subjected to 20 repetitions of the waveform, and the fluorescence response was averaged over all iterations.

[3] = tested on: HEK 293 cells; test: Arch fluorescence as a function of membrane potential, whole-cell voltage clamp; type: cell-based; conditions: for Approx ΔF/F per 100 mV: Table 2, described herein
Protocol: Fluorescence of Arch in HEK 293 cells supplemented with about 5 μM all-trans retinal (See Methods 4) was readily imaged in an inverted fluorescence microscope with red illumination (λ=640 nm, about 20 mW, and about I=540 W/cm^2), a high numerical aperture objective (NA), a Cy5 filter set, and an EMCCD camera (See Methods 5, FIG. 3A). […] Cells not expressing Arch were not fluorescent.
(4) HEK cell culture. HEK-293 cells were grown at 37° C., 5% CO2, in DMEM supplemented with 10% FBS and penicillin-streptomycin. Plasmids were transfected using Lipofectamine and PLUS reagent (Invitrogen) following the manufacturer's instructions, and assayed between 48-72 hours later. The day before recording, cells were re-plated onto glass-bottom dishes (MatTek) at a density of ˜5000 cells/cm^2.
The concentration of endogenous retinal in the HEK cells was not known, so the cells were supplemented with retinal by diluting stock retinal solutions (40 mM, DMSO) in growth medium to a final concentration of 5 micromolar, and then placing the cells back in the incubator for 1-3 hours. All imaging and electrophysiology were performed in Tyrode buffer (containing, in mM: 125 NaCl, 2 KCl, 3 CaCl2, 1 MgCl2, 10 HEPES, 30 glucose pH 7.3, and adjusted to 305-310 mOsm with sucrose). Only HEK cells having reversal potentials between −10 and −40 mV were included in the analysis.
(5) Microscopy. Simultaneous fluorescence and whole-cell patch clamp recordings were acquired on a home-built, inverted epifluorescence microscope, operated at room temperature. One goal was to collect fluorescence with high efficiency, while also achieving a large enough field of view to image an entire neuron and its processes. Typically, microscope objectives offer a tradeoff between magnification and light-gathering capacity (numerical aperture). Additionally, the ability to change magnification while maintaining a patch on a single cell was important in some cases. Typically the vibrations associated with switching objectives—particularly water or oil immersion objectives—are incompatible with simultaneous patch clamp. In addition, in some cases, the capability to split the field of view into two wavelength bands, and to change magnification without changing the registration of the two halves of the image was important.
(6) Electrophysiology. Filamented glass micropipettes (WPI) were pulled to a tip resistance of 3-10 megohm fire polished, and filled with internal solution (containing, in mM: 125 potassium gluconate, 8 NaCl, 0.6 MgCl2, 0.1 CaCl2, 1 EGTA, 10 HEPES, 4 Mg-ATP, 0.4 Na-GTP, pH 7.3; adjusted to 295 mOsm with sucrose). The micropipettes were positioned with a Burleigh PCS 5000 micromanipulator. Whole-cell, voltage clamp recordings were acquired using an AxoPatch 200B amplifier (Molecular Devices), filtered at 2 kHz with the internal Bessel filter, and digitized with a National Instruments PCIE-6323 acquisition board at 10 kHz. […]
(7) Ramp and step-response of Arch WT and D95N. To measure fluorescence as a function of membrane potential, a triangle wave was applied, with amplitude from −150 mV to +150 mV and period 12 s, with video recording at 100 ms per frame. A pixel weight matrix was calculated according to Eq. S2 (below) and applied to the movie images to generate a fluorescence number for each frame. These fluorescence values were divided by their minimum value (at V=−150 mV). […] Background subtraction from the raw fluorescence would have yielded considerably larger values of delta-F/F.

[4] = steps between −70 mV and +30 mV

Molecule	Photostability relative to eGFP [1]	response time [2] [ms]	Approx response time [2] [ms]	τresponse [2] [ms]	response time ([2]; listed as Arch 3 D95N) [ms]	fast component of step response [2, 4] [μs]	fraction of step response that is fast [2, 4]	time constant of slow component of step response [2, 4] [ms]	fraction of step response that is fast ([2]; steps between −70 mV and +30 mV, listed as ArchD95N) [%]	greater sensitivity than wild-type [3] [%]	Approx ΔF/F per 100 mV [3] [%]	increase in fluorescence between −150 mV and +150 mV ([3]; whole-cell voltage clamp, no background subtraction)	time for 90% of step response [2] [ms]	photobleaching ([3]; continuous 10-minute exposure, 640 nm, about 540 W/cm^2, HEK 293 cells)
B1	0.1	41	41	41	40	< 500	about 20%	41	20	50	100	about 3 fold		
B2	0.25		<0.5	< 0.5							66		< 0.5	about 17%
